Measured values from PMC4051120, “Drastic changes in conformational dynamics of the antiterminator M2-1 regulate transcription efficiency in Pneumovirinae”.

Experiments:
HMPV M2-1 [1] = molecular target: T1, HMPV M2-1 (Human metapneumovirus strain NL1-00 (A1), UniProt Q8QN58 1-187); experiment: SAXS titration; Zn2+ (zinc finger intact); 150 mM NaCl, 500 mM NDSB-201; closed conformation induced, Rg up to ~8 nm, aggregation; SAXS: 20 mM Tris pH 7.5, 150 mM NaCl, 500 mM NDSB-201, +/- 5 mM EDTA, ~0.2 mg/ml protein; TSA: 50 mM HEPES pH 7.5, 150 mM NaCl, 20-99 C; crystals: 28% PEG MME 2000, 0.1 M bis-Tris pH 6.5, 20 C; details: protein: recombinant; tags: N-terminal His6-3C, optionally removed by 3C protease; chain copies: 4
HMPV M2-1 [2] = molecular target: T1, HMPV M2-1; experiment: SAXS titration; Zn2+ (zinc finger intact); 150 mM NaCl, 500 mM NDSB-201; Rg increase, aggregation; SAXS: 20 mM Tris pH 7.5, 150 mM NaCl, 500 mM NDSB-201, +/- 5 mM EDTA, ~0.2 mg/ml protein; TSA: 50 mM HEPES pH 7.5, 150 mM NaCl, 20-99 C; crystals: 28% PEG MME 2000, 0.1 M bis-Tris pH 6.5, 20 C; details: protein: recombinant; tags: N-terminal His6-3C, optionally removed by 3C protease; chain copies: 4

Row | Binder | binding result (HMPV M2-1 [1]) | binding result (HMPV M2-1 [2])
1 | AGUUAAUUAAAAA (ssRNA) [F gene end RNA (positive sense)] | binds | –
2 | ACGCGAAAAAAU (ssRNA) [leader RNA 1-12 (positive sense)] | – | binds
